The data set concerns the molecule itself. As to the kind of experiment: SEC. A general note: Size exclusion chromatography separates by hydrodynamic size, large species first.

B1: phosphorylated Stat3β (residues 127-722), wildtype (domain or fragment, murine, UniProt P42227-2 127-722, looked up)
chain: GQANHPTAAVVTEKQQMLEQHLQDVRKRVQDLEQKMKVVENLQDDFDFNYKTLKSQGDMQDLNGNNQSVTRQKMQQLEQMLTALDQMRRSIVSELAGLLSAMEYVQKTLTDEELADWKRRQQIACIGGPPNICLDRLENWITSLAESQLQTRQQIKKLEELQQKVSYKGDPIVQHRPMLEERIVELFRNLMKSAFVVERQPCMPMHPDRPLVIKTGVQFTTKVRLLVKFPELNYQLKIKVCIDKDSGDVAALRGSRKFNILGTNTKVMNMEESNNGSLSAEFKHLTLREQRCGNGGRANCDASLIVTEELHLITFETEVYHQGLKIDLETHSLPVVVISNICQMPNAWASILWYNMLTNNPKNVNFFTKPPIGTWDQVAEVLSWQFSSTTKRGLSIEQLTTLAEKLLGPGVNYSGCQITWAKFCKENMAGKGFSFWVWLDNIIDLVKKYILALWNEGYIMGFISKERERAILSTKPPGTFLLRFSESSKEGGVTFTWVEKDISGKTQIQSVEPYTKQQLNNMSFAEIIMGYKIMDATNILVSPLVYLYPDIPKEEAFGKYCRPESQEHPEADPGSAAPYLKTKFICVTPFIDAVWK
modifications: phosphotyrosine at 705
Take B1: the stoichiometry N (in general, the number of molecules, sites or subunits per partner or assembly) came to 2.

These data come from publication PMC3098940 (ACS chemical biology, 2011).
